Assay results from patent US20200087373A1 (UNIVERSITY OF COPENHAGEN, published 2020).
Ends that are not written are not given here. * marks the point of attachment. C16 diacid = O=C(O)CCCCCCCCCCCCCCC(=O)*

B1: AT179 [hGIP(5-30)NH2[Q19K]-C16diacid/19] (peptide)
peptide: TFISDYSIAMDKIHK(C16 diacid)QDFVNWLLAQK-NH2
modifications: N-terminus assumed
SMILES: CC[C@H](C)[C@H](NC(=O)[C@H](CO)NC(=O)[C@H](Cc1ccc(O)cc1)NC(=O)[C@H](CC(=O)O)NC(=O)[C@H](CO)NC(=O)[C@@H](NC(=O)[C@H](Cc1ccccc1)NC(=O)[C@@H](N)[C@@H](C)O)[C@@H](C)CC)C(=O)N[C@@H](C)C(=O)N[C@@H](CCSC)C(=O)N[C@@H](CC(=O)O)C(=O)N[C@@H](CCCCN)C(=O)N[C@H](C(=O)N[C@@H](Cc1c[nH]cn1)C(=O)N[C@@H](CCCCNC(=O)CCCCCCCCCCCCCCC(=O)O)C(=O)N[C@@H](CCC(N)=O)C(=O)N[C@@H](CC(=O)O)C(=O)N[C@@H](Cc1ccccc1)C(=O)N[C@H](C(=O)N[C@@H](CC(N)=O)C(=O)N[C@@H](Cc1c[nH]c2ccccc12)C(=O)N[C@@H](CC(C)C)C(=O)N[C@@H](CC(C)C)C(=O)N[C@@H](C)C(=O)N[C@@H](CCC(N)=O)C(=O)N[C@@H](CCCCN)C(N)=O)C(C)C)[C@@H](C)CC
B2: AT183 [hGIP(5-30)NH2[V23K]-C16diacid/23] (peptide)
peptide: TFISDYSIAMDKIHQQDFK(C16 diacid)NWLLAQK-NH2
modifications: N-terminus assumed
SMILES: CC[C@H](C)[C@H](NC(=O)[C@H](CO)NC(=O)[C@H](Cc1ccc(O)cc1)NC(=O)[C@H](CC(=O)O)NC(=O)[C@H](CO)NC(=O)[C@@H](NC(=O)[C@H](Cc1ccccc1)NC(=O)[C@@H](N)[C@@H](C)O)[C@@H](C)CC)C(=O)N[C@@H](C)C(=O)N[C@@H](CCSC)C(=O)N[C@@H](CC(=O)O)C(=O)N[C@@H](CCCCN)C(=O)N[C@H](C(=O)N[C@@H](Cc1c[nH]cn1)C(=O)N[C@@H](CCC(N)=O)C(=O)N[C@@H](CCC(N)=O)C(=O)N[C@@H](CC(=O)O)C(=O)N[C@@H](Cc1ccccc1)C(=O)N[C@@H](CCCCNC(=O)CCCCCCCCCCCCCCC(=O)O)C(=O)N[C@@H](CC(N)=O)C(=O)N[C@@H](Cc1c[nH]c2ccccc12)C(=O)N[C@@H](CC(C)C)C(=O)N[C@@H](CC(C)C)C(=O)N[C@@H](C)C(=O)N[C@@H](CCC(N)=O)C(=O)N[C@@H](CCCCN)C(N)=O)[C@@H](C)CC
B3: AT180 [hGIP(5-30)NH2[Q20K]-C16diacid/20] (peptide)
peptide: TFISDYSIAMDKIHQK(C16 diacid)DFVNWLLAQK-NH2
modifications: N-terminus assumed
SMILES: CC[C@H](C)[C@H](NC(=O)[C@H](CO)NC(=O)[C@H](Cc1ccc(O)cc1)NC(=O)[C@H](CC(=O)O)NC(=O)[C@H](CO)NC(=O)[C@@H](NC(=O)[C@H](Cc1ccccc1)NC(=O)[C@@H](N)[C@@H](C)O)[C@@H](C)CC)C(=O)N[C@@H](C)C(=O)N[C@@H](CCSC)C(=O)N[C@@H](CC(=O)O)C(=O)N[C@@H](CCCCN)C(=O)N[C@H](C(=O)N[C@@H](Cc1c[nH]cn1)C(=O)N[C@@H](CCC(N)=O)C(=O)N[C@@H](CCCCNC(=O)CCCCCCCCCCCCCCC(=O)O)C(=O)N[C@@H](CC(=O)O)C(=O)N[C@@H](Cc1ccccc1)C(=O)N[C@H](C(=O)N[C@@H](CC(N)=O)C(=O)N[C@@H](Cc1c[nH]c2ccccc12)C(=O)N[C@@H](CC(C)C)C(=O)N[C@@H](CC(C)C)C(=O)N[C@@H](C)C(=O)N[C@@H](CCC(N)=O)C(=O)N[C@@H](CCCCN)C(N)=O)C(C)C)[C@@H](C)CC
B4: AT181 [hGIP(5-30)NH2[D21K]-C16diacid/21] (peptide)
peptide: TFISDYSIAMDKIHQQK(C16 diacid)FVNWLLAQK-NH2
modifications: N-terminus assumed
SMILES: CC[C@H](C)[C@H](NC(=O)[C@H](CO)NC(=O)[C@H](Cc1ccc(O)cc1)NC(=O)[C@H](CC(=O)O)NC(=O)[C@H](CO)NC(=O)[C@@H](NC(=O)[C@H](Cc1ccccc1)NC(=O)[C@@H](N)[C@@H](C)O)[C@@H](C)CC)C(=O)N[C@@H](C)C(=O)N[C@@H](CCSC)C(=O)N[C@@H](CC(=O)O)C(=O)N[C@@H](CCCCN)C(=O)N[C@H](C(=O)N[C@@H](Cc1c[nH]cn1)C(=O)N[C@@H](CCC(N)=O)C(=O)N[C@@H](CCC(N)=O)C(=O)N[C@@H](CCCCNC(=O)CCCCCCCCCCCCCCC(=O)O)C(=O)N[C@@H](Cc1ccccc1)C(=O)N[C@H](C(=O)N[C@@H](CC(N)=O)C(=O)N[C@@H](Cc1c[nH]c2ccccc12)C(=O)N[C@@H](CC(C)C)C(=O)N[C@@H](CC(C)C)C(=O)N[C@@H](C)C(=O)N[C@@H](CCC(N)=O)C(=O)N[C@@H](CCCCN)C(N)=O)C(C)C)[C@@H](C)CC
B5: AT182 [hGIP(5-30)NH2[F22K]-C16diacid/22] (peptide)
peptide: TFISDYSIAMDKIHQQDK(C16 diacid)VNWLLAQK-NH2
modifications: N-terminus assumed
SMILES: CC[C@H](C)[C@H](NC(=O)[C@H](CO)NC(=O)[C@H](Cc1ccc(O)cc1)NC(=O)[C@H](CC(=O)O)NC(=O)[C@H](CO)NC(=O)[C@@H](NC(=O)[C@H](Cc1ccccc1)NC(=O)[C@@H](N)[C@@H](C)O)[C@@H](C)CC)C(=O)N[C@@H](C)C(=O)N[C@@H](CCSC)C(=O)N[C@@H](CC(=O)O)C(=O)N[C@@H](CCCCN)C(=O)N[C@H](C(=O)N[C@@H](Cc1c[nH]cn1)C(=O)N[C@@H](CCC(N)=O)C(=O)N[C@@H](CCC(N)=O)C(=O)N[C@@H](CC(=O)O)C(=O)N[C@@H](CCCCNC(=O)CCCCCCCCCCCCCCC(=O)O)C(=O)N[C@H](C(=O)N[C@@H](CC(N)=O)C(=O)N[C@@H](Cc1c[nH]c2ccccc12)C(=O)N[C@@H](CC(C)C)C(=O)N[C@@H](CC(C)C)C(=O)N[C@@H](C)C(=O)N[C@@H](CCC(N)=O)C(=O)N[C@@H](CCCCN)C(N)=O)C(C)C)[C@@H](C)CC

Assays:
human GIP receptor [1] = molecular target: T1, human GIP receptor (human, UniProt P48546 22-466); experiment: cell-based or functional assay
T1 sequence (looked up): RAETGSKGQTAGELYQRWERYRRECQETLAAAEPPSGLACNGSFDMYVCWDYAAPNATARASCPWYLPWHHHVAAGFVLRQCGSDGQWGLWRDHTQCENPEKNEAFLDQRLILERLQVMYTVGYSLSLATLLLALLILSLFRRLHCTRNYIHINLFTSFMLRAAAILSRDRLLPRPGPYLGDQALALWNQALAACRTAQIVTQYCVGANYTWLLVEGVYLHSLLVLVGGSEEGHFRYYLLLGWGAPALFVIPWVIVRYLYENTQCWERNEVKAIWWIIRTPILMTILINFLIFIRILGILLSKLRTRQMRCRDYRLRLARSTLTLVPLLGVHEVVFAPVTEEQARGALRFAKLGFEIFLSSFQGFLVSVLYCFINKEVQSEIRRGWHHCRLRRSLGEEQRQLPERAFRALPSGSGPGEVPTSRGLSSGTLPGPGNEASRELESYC

human GIP receptor [2] = molecular target: T1, human GIP receptor; experiment: 125I-hGIP competition binding, COS-7/hGIPR, 2% HSA;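 also: nonspecific binding defined as radioligand binding to untransfected cells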
Method: (§1) After incubation, the cells were washed twice in ice-cold binding buffer (+/−2% HSA) and lysed using 200 mM NaOH with 1% SDS for 30 min. Nonspecific binding was determined as the binding of radioactive ligand to untransfected cells.

human GIP receptor [3] = molecular target: T1, human GIP receptor; experiment: 125I-hGIP competition binding, COS-7/hGIPR, 0.1% casein;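 also: nonspecific binding defined as radioligand binding measured on untransfected cells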
Method: as §1

human GIP receptor [4] = molecular target: T1, human GIP receptor; experiment: 125I-hGIP competition binding, COS-7 cells expressing hGIPR;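 also: nonspecific binding taken as radioligand bound by untransfected cells, binding buffer with or without 2% HSA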
Method: as §1

human GIP receptor [5] = molecular target: T1, human GIP receptor; experiment: IC50 with 2% HSA over IC50 with 0.1% casein, 125I-hGIP competition, COS-7/hGIPR
Method: as §1

Binder | cAMP agonism (human GIP receptor [1]) [nM] | cAMP agonism, EC50 (log) (human GIP receptor [1]) [log M] | cAMP agonism, Emax (human GIP receptor [1]) | cAMP antagonism (human GIP receptor [1]) [nM] | cAMP antagonism, log (human GIP receptor [1]) [log M] | IC50 (human GIP receptor [2]) [nM] | logIC50 (human GIP receptor [2]) [log M] | IC50 (human GIP receptor [3]) [nM] | logIC50 (human GIP receptor [3]) [log M] | IC50 (human GIP receptor [4]) [nM] | log IC50 (human GIP receptor [4]) [log M] | Fold change HSA (2%)/Casein (0.1%) (human GIP receptor [5]) [fold]
B1 | 89 | -7 | 32 | 89 | -7.1 | 38 | -7.42 | 10.5 | -7.98 | 453 | -6.3 | 3.6
B2 | – | – | 0 | 1770 | -5.8 | 1700 | -5.8 | 955 | -6 | 7130 | -5.1 | 1.8
B3 | – | – | 0 | 37 | -7.4 | 1700 | -5.8 | 457 | -6.3 | 106 | -7 | 3.7
B4 | 2 | -9 | 9 | 16 | -7.8 | 550 | -6.3 | 105 | -7 | 48 | -7.3 | 5.2
B5 | 634 | -6 | 13 | 634 | -6.2 | 141 | -6.9 | 47.9 | -7.3 | 962 | -6 | 3
